According to the nanobody polyreactivity screen of Harvey et al. (2022):

Assay: yeast display, Sf9 membrane polyspecificity reagent, FACS + sequencing; frameworks hold sequencing errors
Summary of the method: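 Galactose induction of a Saccharomyces cerevisiae BJ5465 synthetic nanobody display library ran 36–48 hours. The cells were then stained for 1 hour at 4 °C with 10% biotinylated, detergent-solubilized Sf9 membrane reagent, pulled down on streptavidin microbeads and FACS-sorted into low and high (top ~1%) gates on expression and reagent-binding fluorescence. Labels for polyreactivity follow the gate of origin.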

Q: With “QVQLVESVGGLVQAGGSLRLSCAASGFIFSPYAMGWYRQAPGKERELVAAISWNGGRTYYADSVKGRFTISRDYAKNTVYLQMNSLKPEDTAVYYCAASFRNPYSHGYWGQGTQVTVSS” as the sequence, how does the “polyreactivity (PSR sort gate)” value read?
A: high polyreactivity

Q: Which “polyreactivity (PSR sort gate)” value does the source give for “QVQLVDSGGGLDQAGGSLRLSCAASGSIFVSEYDMVWYIQAPGKERELVARSRWSSGSTYYADSVKGRFSISRDYAKNTVYVQMNSLKPEDTAVYYCNTVRTRERTDYDYWGQGTQVTVSS” here?
A: low polyreactivity

Q: For “QVQLVESGGGLVLAGGSLRLSSAASGFTFSPYAMGWYRQAPGKERELVPAISASGGRTYYADSVKGRFTISRDYAKNTVYLQMNSLKPEDTAVYYCAAKLYDSGGRYWYDYWGQGTQVTVSS”, which “polyreactivity (PSR sort gate)” value is on record?
A: high polyreactivity

Q: Which “polyreactivity (PSR sort gate)” value does the source give for “QVQLVESGGGLVQAGGSLRLSCAASGSTFTTYAMGWYRQAPGKERELVAAITVDGGGTYYADSVKGRFTISRDNAKNTVYLQMNSLKPVDTAVYYCAAVTKLGYPPVNHLEDDYWGQGTQVTVSS” here?
A: low polyreactivity

Q: Which “polyreactivity (PSR sort gate)” value does the source give for “QVQLVESGGGLVQAGGSLRLSCAASGSIFGDNAMGWYIQAPGKERELVAAITSSGVRTYYADSVKGRFTISRDNAKNTVYLQMNSLKPEDTAVYYCNADRFRRIRWYAITRSDYWGQGTQVTVSS” here?
A: high polyreactivity

Q: Which “polyreactivity (PSR sort gate)” value does the source give for “QVQLVESGGGIVQAGGSLRLSCAASGGTFPWYTMVWYRQAPGKERELVATIRGRDGSTFYADSVKGRFTISRDNAKNTVYLQMNSLIPEVTAVYYCAAVGRRKDLRWGVYYRFDYWGQGTQVTVSS” here?
A: low polyreactivity

Q: With “QVHLVESGGGLVQAGGSLRLSCAASGSIFVAYAMGWYRQAPGKERELVAAISSSGGTTYYADSVKGRFTISRDNAMNTVYLQMNSLKPEDTAVYYCAARDYKFYYWGQGSQVTVSS” as the sequence, how does the “polyreactivity (PSR sort gate)” value read?
A: high polyreactivity

Q: For “QGQLVESGGGLVQAGGSLRLSCAASGSIFYINAMGWYRQAPGKERELVASISGGGGSTYYADSVKGRFTLSRDNAKNTVYLQMNSLKPEDTAVYYCNTVSRKDYDYWGQGTQVTVSS”, which “polyreactivity (PSR sort gate)” value is on record?
A: high polyreactivity

Q: With “QVQLVESAGGLVQAGGSLRLSCAASGLIFAVYAKGLYRQAPGKEREFLAAITGTGSSTYYADSVKGRFTISRDNAKNTVYLQMNSLKPEDTAVYYCNAYVYDWIPYYHIDHDYWGQGTQVTVSS” as the sequence, how does the “polyreactivity (PSR sort gate)” value read?
A: low polyreactivity

Q: Which “polyreactivity (PSR sort gate)” value does the source give for “QVQLVESGGGLVQAGGSLRLSCAASGFIFRHNAMGWYRPAPGTEREFVAAISISGGSTYYADSVKGRFTISRDNAKNTVYLQMNSLKPEDTAVYYCNARSLGNTYLLYDYWGQGTQVTVSS” here?
A: low polyreactivity

Q: For “QVQLVESGGGLVQAGGSIRLSFPASGRTFAYNAMGRYRPAPGKERELVADITSGGSTYYADSVKGRFTISRENAKNTVYLQMNRLKREDTAVYYCAAYPQFWYWDYNYWGQGTQVTVSS”, which “polyreactivity (PSR sort gate)” value is on record?
A: high polyreactivity

Q: For “QVQLVESGGGLVQAGGSLRLSCAASGSTFGYYVMGWSRQAPGKERELVAAISWGGGSTYYADSVKGRFTISRDNAQNTVYLQMNSLNPEDTAVYYCNLRDQWWGYDYWGQGTQVTVSS”, which “polyreactivity (PSR sort gate)” value is on record?
A: low polyreactivity

Q: For “QVQLVESGGGLVQAGGSLRLSCAASGRIFDYYTMGWSRQAPGKVRELVAAISSGGRTYYADSVKGRFTISRDNAKNTVYLQMNSLKPEDTAVYYCNALDTRHTYTYTGGKRFPYDHWGQGTQVTVSS”, which “polyreactivity (PSR sort gate)” value is on record?
A: low polyreactivity

Q: Which “polyreactivity (PSR sort gate)” value does the source give for “QVQLVESGGGKVQAGGSLRLICAASGSTFTYNTMGWYRQAPGKERELVAAISSGGSTYYADSVKGRFTISRDNAKNTVYLQLNSLNPVDTAVYYCAATAQKYSRYGSRYYYWGQGTQVTVSS” here?
A: high polyreactivity

Q: Which “polyreactivity (PSR sort gate)” value does the source give for “QVQLVESGGGLVQAGGSLRLSCAASGNIFKVNTMGWYRQAPGKERELVAAINRSGGRPYYADSVKGSFTISRDNAKNTVYLQMNSLKPEDTAVYYCATRVHKSTHGYDYWGQGTQVTVSS” here?
A: high polyreactivity

Q: With “QVQLVESVGGLVQAGGSLRLSCAASGRISNDYAMGWYRQAPGKERELVATITFSGGDTYYADSVKGRFTISRDNAKNTVYLQMNSLKPEETAVYYCAASKWRSYSGVWWRLLFDYWGQGTQVTVSS” as the sequence, how does the “polyreactivity (PSR sort gate)” value read?
A: low polyreactivity

Q: With “QVQLVESGGGLVQAGGTLRLSCAASGRTFTIYAMGWYRQAPGKEREWVAAITSGGSSYYADSVKGRFTISRDNATKTDYLQMNSLKPEDTAVEYCARGYAVSLVSRYYYWGQGTQVTVSS” as the sequence, how does the “polyreactivity (PSR sort gate)” value read?
A: low polyreactivity

Q: For “QVQLVESVGGLVQAGGSLRLSCAASGFILRVNDMGWYRQAPGKERELVAAISQGDGSTYYADSVKGRFTISSDNAKNSVYLQMNSLKPEDNAVYYCNAELYRDLGGYDHWGQGTQVTVSS”, which “polyreactivity (PSR sort gate)” value is on record?
A: low polyreactivity

Q: With “QVQLVESGGGLVQAGGSLRLSCAASGNTFREYTMGWYRQAPGKERELVAGISGSGGRTYYADSVKGRFTISRDNAKNTVYLQMNSLKPEDTAVYYCYARWYYGIGYNYWGQGTQVTVSS” as the sequence, how does the “polyreactivity (PSR sort gate)” value read?
A: high polyreactivity

Q: With “QVQHVESGGGLVQAGGSLRLSCAASGRTFHQNAMGWYRQAPGKERELVATITAGSGSTYYADSVKGRFTISGDNAKNTVYLQMNSVKPEDTAVYFWNAKWTLYQSDYWYYIYDYCGQGTQVTVSS” as the sequence, how does the “polyreactivity (PSR sort gate)” value read?
A: low polyreactivity

Q: For “QVQLVESGGGLVQAGGSLRLSCAASGLTFRKYVMGWYRQAPGKERELVAAISGGGGSTYYADSVKGRFTISRDNAKNTVYLQMNSLKPEDTAVYYCAAVIYRGYYYWGQGTQVTVSS”, which “polyreactivity (PSR sort gate)” value is on record?
A: high polyreactivity

Q: For “QVQLVESGGGLVQAGGSLRLSCAASGRTFRTYTMGWYRQAPGKEREFVAAIDRTGGSTYYADSVKGRFTISRDNAKNTVYLQMNSLKPEDTAVYYCAARFGSGFNYWGQGTQVTVSS”, which “polyreactivity (PSR sort gate)” value is on record?
A: high polyreactivity

Q: With “QVQLVESGGGLVQAGGSLRLSCAASGSIFKYNAMGWYRQAPGKERELVAAITYSGGSTYYADSVKGRFTISRDNAKNTVYLQMNSLKPEDTAVYYCNAYRRFSAFDYWGQGTQVTVSS” as the sequence, how does the “polyreactivity (PSR sort gate)” value read?
A: high polyreactivity

Q: Which “polyreactivity (PSR sort gate)” value does the source give for “QVQLVESGGGLVQAGGSLRLSCAASGIILFYAMGWYRQAPGKERELVAAISSGGGTSYADSVKGRFTISRDNAKNTVYLHMNSLKPEDTAVYYCNADGYSYFWYPSYARGHDYWGQGTQVTVSS” here?
A: low polyreactivity

Q: With “QVQLVESGGGLVQAGASLRLSCAASGGTIAPYAMGWYRQAPGNVRELVAAITSAGTRTYYADSVKGRFTISRENAKNTVYLQMNRLKPEDTAVYYCAAGGGHSMYYWGKGTQVTVSS” as the sequence, how does the “polyreactivity (PSR sort gate)” value read?
A: high polyreactivity

Q: Which “polyreactivity (PSR sort gate)” value does the source give for “QVQLVVSGGGLVQAGGSLRLSCAASGSTFYAYAMGWYRQAPGKERELVARIRWRGGRTYYADSVKGRFTISRDNAKNTVYLRMNSLKPEDTAVYYCNRGYYSYYGRYYYWGQGTQVTLSS” here?
A: high polyreactivity

Q: Which “polyreactivity (PSR sort gate)” value does the source give for “QFQLVESGGGLVQAGGSLRLSFAASGFIFGLYAMGWYRQAPGIETELVAAISGSGGSTYYADSVKGRFTISRDNAKNTVYLQMNSLKPEDTAVYYCNRAQGVHTYVYRYGYWGQGTQVTVSS” here?
A: low polyreactivity

Q: For “QVQLVESGGGLVQAGGSLRLSCAASGFIIDCYAMGRYRQAPGKERELVAVISQRGSNTYYADSVKGRFTISRDHAKNTVYLQMNSLKPEDTAVYYCAARYKQGDSTGGRMNYWGQGTQVTVSS”, which “polyreactivity (PSR sort gate)” value is on record?
A: high polyreactivity

Q: Which “polyreactivity (PSR sort gate)” value does the source give for “QVQHVESGGGLVHAGCRLRLSCAASGRTFIKYAMGWYRQAPGTERELVAGISGGGASTYYADSVKGRFTISRDNAKNTVYLQMNSLKPEETAVYYFAKLSPRGRRYDYWGQGTQVTVSS” here?
A: high polyreactivity

Q: With “QVQLVESGGGLVQAGGSLRLSCAASGIIFKYYARGWYRQAPGKERELVAGITSGGSTYYADSVKGRFTISRDNAKNTVYLQMNSLKPEDTAVYYCATRVRDGSQPQYRRRHSYDYWGQGTQVTVSS” as the sequence, how does the “polyreactivity (PSR sort gate)” value read?
A: high polyreactivity

Q: For “QVQLVESGGGLVQAGGSLRLSCAASGRTFERYAMGWYRQAPGKERELVATITRRGGSTYYADSVKGRFTISRDNAKNTVYLQMNSLKPEDTAVYYCNADNQAYRIYARGYWGQGTQVTVSS”, which “polyreactivity (PSR sort gate)” value is on record?
A: high polyreactivity

Q: Which “polyreactivity (PSR sort gate)” value does the source give for “QVQLVESGGGLVQAGGSLRLSCAASGLTFRANDMGWYRQAPGKERELVAGITESGDSTYYADSVKGRFTISRDNAKNTVYLQMNSLKPEDTAVYYCAAGSYYWYWYRVGEWYAYEYWGQGTQVTVSS” here?
A: low polyreactivity

Q: For “QVQLVESGGGLVQAGGSLRLSCAASGRIFEPYAMGWYRQAPGKERELVAAITSGGSTDYADSVKGRFTISRDNAKNTVYLQMNSLKPEDTAVYYCAAETVWRLDYWGQGTQVTVSS”, which “polyreactivity (PSR sort gate)” value is on record?
A: low polyreactivity

Q: Which “polyreactivity (PSR sort gate)” value does the source give for “QVQLVESGGGLVQAGGSLRLSCAASGRIFFPNAMGWYRQAPGKERELVAAITSGSSTYYADSVKGRFTISRDNAKNTVYLQMNSLKPEDTAVYYCAARGRRGEAYRSVYYWGQGTQVTVSS” here?
A: high polyreactivity

Q: With “QVQLVESGGGLVQAGCSLRLSCDASGRIFVTNAMGWYRQAPGKERELVAANSYRGGRTYYADSVKGRFTISRDNAKNTVYLQMNSLKPEDTAVYYCNAVTRWPFDYWGQGTQVTVSS” as the sequence, how does the “polyreactivity (PSR sort gate)” value read?
A: high polyreactivity

Q: With “QVQLVESGGGLVQAGGSLRLTCAASGSIFTKYAMGWYRQAPGKERELVAGISSSGCSTYYADSVKGRFTISRDYAKNTVYLQMNSLKPEDTAVYYCAARGYYKYDYWGQGTQVTVSS” as the sequence, how does the “polyreactivity (PSR sort gate)” value read?
A: high polyreactivity

Q: For “QVQLVESGGGIVQAGGSLRLSCAASGFIFYWNAMGRYRQAPGKERELVAGITSGGDTNYADSVKGRFTISRDNAKITVYLQMNSLKPEDTAVYYCAAEGFRGYGYWGQGTQVTVSS”, which “polyreactivity (PSR sort gate)” value is on record?
A: low polyreactivity

Q: For “QVQLQESGGGLVQAGGSQRLSCAASGYIFYFQYMGWYRQAPGKELEFVAAISDGANTNYADSVKGRITISRDNAKNTEYLQMNSLKPEDTAVYYCAVYADENDYYIYWGQGTQVTVSS”, which “polyreactivity (PSR sort gate)” value is on record?
A: low polyreactivity

Q: For “QVQLVESGGGLVQAGGSLRLSCAASGLTFYWNAMGWYRQAPGKERELVASISQSSGNTYYADSVKGRFTISRDNAKNTVYFQMNSLKPEDTAVYYCAARNRPSLNRYYYWGQGTQVNVSS”, which “polyreactivity (PSR sort gate)” value is on record?
A: low polyreactivity

Q: For “QVQLVESGGGLVQAGGRLRISCAATGSTSVRNAMGWSRQGPGKESELVAGISRGGGITYYADSVKGRFTISRDNAKNTVYLQMNILKTEDTAVYYCAAVYYVDYPDGNYEYWGQGTQVTVSS”, which “polyreactivity (PSR sort gate)” value is on record?
A: high polyreactivity

Q: Which “polyreactivity (PSR sort gate)” value does the source give for “QVQLVESGGGLVQAGGSLRLSCAASGFTFFVSAMGWYRQAPRKERELVAVITSGGTTNYADSVKGRFTISRDIAKKTVYLQMNSLKPEDTAVYYCNGRGEKRGYYYWGQGTQVSVSS” here?
A: high polyreactivity

Q: For “QVQLVESGGGLVQAGGSLRLSCAASGRIFGVYAMGWYRQAPGKERELVAAISFSGGRTYYADSVKGRFTISRDNAKNTVYLQMNSLKAEDTAVYDCAALGPYDWLWAGDYWGQGTQVTVSS”, which “polyreactivity (PSR sort gate)” value is on record?
A: low polyreactivity

Q: With “QDQLVESGGGLVQAGGSLRLSCAASGSIFYYYVMGWYRQETGKEREFVAAISWGGDSTYYADSVKGRFTISRDNAKNTVYLQMNSLKTEDTAVYYCKADYPWSVLAYDYWGQGTQVTVSS” as the sequence, how does the “polyreactivity (PSR sort gate)” value read?
A: low polyreactivity
